What was measured:
[1] = target: HIV-1 subtype C C06980v1c3 gp160 (HIV-1 subtype C isolate C06980v1c3); test: gp160 antigen capture ELISA, 2F5 as capture antibody; media of transfected HEK293 cells, 48 h (negative control 0.135)
[2] = target: HIV-1 subtype C C3728v2c6 gp160 (HIV-1 subtype C isolate C3728v2c6); test: as above
[3] = target: HIV-1 subtype C C06838v1c48 gp160 (HIV-1 subtype C isolate C06838v1c48); test: as above
[4] = target: HIV-1 subtype C C06838v1c48 gp160 DC (HIV-1 subtype C isolate C06838v1c48); test: as above
[5] = target: HIV-1 Ba-L gp145 (HIV-1 Ba-L (subtype B)); test: as above
[6] = target: HIV-1 subtype C C06980v0c22 gp160 DC (HIV-1 subtype C isolate C06980v0c22); test: as above
[7] = target: HIV-1 subtype C C06980v1c3 gp160 DC (HIV-1 subtype C isolate C06980v1c3); test: as above
[8] = target: HIV-1 subtype C C06980v0c22 gp160 (HIV-1 subtype C isolate C06980v0c22); test: as above
[9] = target: HIV-1 subtype C C3728v2c6 gp160 DC (HIV-1 subtype C isolate C3728v2c6); test: as above
[10] = target: HIV-1 subtype C C06980v1c3 gp160 (HIV-1 subtype C isolate C06980v1c3); test: gp160 antigen capture ELISA, 2F5 as capture antibody; cell lysate of transfected HEK293 cells, 48 h (negative control 0.150)
[11] = target: HIV-1 subtype C C3728v2c6 gp160 (HIV-1 subtype C isolate C3728v2c6); test: as above
[12] = target: HIV-1 subtype C C06838v1c48 gp160 (HIV-1 subtype C isolate C06838v1c48); test: as above
[13] = target: HIV-1 subtype C C06838v1c48 gp160 DC (HIV-1 subtype C isolate C06838v1c48); test: as above
[14] = target: HIV-1 Ba-L gp145 (HIV-1 Ba-L (subtype B)); test: as above
[15] = target: HIV-1 subtype C C06980v0c22 gp160 DC (HIV-1 subtype C isolate C06980v0c22); test: as above
[16] = target: HIV-1 subtype C C06980v1c3 gp160 DC (HIV-1 subtype C isolate C06980v1c3); test: as above
[17] = target: HIV-1 subtype C C06980v0c22 gp160 (HIV-1 subtype C isolate C06980v0c22); test: as above
[18] = target: HIV-1 subtype C C3728v2c6 gp160 DC (HIV-1 subtype C isolate C3728v2c6); test: as above
[19] = target: HIV-1 subtype C C06980v1c3 gp160 (HIV-1 subtype C isolate C06980v1c3); test: gp160 antigen capture ELISA, 4E10 as capture antibody; cell lysate of transfected HEK293 cells, 48 h (negative control 0.156)
[20] = target: HIV-1 subtype C C3728v2c6 gp160 (HIV-1 subtype C isolate C3728v2c6); test: as above
[21] = target: HIV-1 subtype C C06838v1c48 gp160 (HIV-1 subtype C isolate C06838v1c48); test: as above
[22] = target: HIV-1 subtype C C06838v1c48 gp160 DC (HIV-1 subtype C isolate C06838v1c48); test: as above
[23] = target: HIV-1 Ba-L gp145 (HIV-1 Ba-L (subtype B)); test: as above
[24] = target: HIV-1 subtype C C06980v0c22 gp160 DC (HIV-1 subtype C isolate C06980v0c22); test: as above
[25] = target: HIV-1 subtype C C06980v1c3 gp160 DC (HIV-1 subtype C isolate C06980v1c3); test: as above
[26] = target: HIV-1 subtype C C06980v0c22 gp160 (HIV-1 subtype C isolate C06980v0c22); test: as above
[27] = target: HIV-1 subtype C C3728v2c6 gp160 DC (HIV-1 subtype C isolate C3728v2c6); test: as above
[28] = target: HIV-1 subtype C C06980v1c3 gp160 (HIV-1 subtype C isolate C06980v1c3); test: gp160 antigen capture ELISA, 4E10 as capture antibody; media of transfected HEK293 cells, 48 h (negative control 0.123)
[29] = target: HIV-1 subtype C C3728v2c6 gp160 (HIV-1 subtype C isolate C3728v2c6); test: as above
[30] = target: HIV-1 subtype C C06838v1c48 gp160 (HIV-1 subtype C isolate C06838v1c48); test: as above
[31] = target: HIV-1 subtype C C06838v1c48 gp160 DC (HIV-1 subtype C isolate C06838v1c48); test: as above
[32] = target: HIV-1 Ba-L gp145 (HIV-1 Ba-L (subtype B)); test: as above
[33] = target: HIV-1 subtype C C06980v0c22 gp160 DC (HIV-1 subtype C isolate C06980v0c22); test: as above
[34] = target: HIV-1 subtype C C06980v1c3 gp160 DC (HIV-1 subtype C isolate C06980v1c3); test: as above
[35] = target: HIV-1 subtype C C06980v0c22 gp160 (HIV-1 subtype C isolate C06980v0c22); test: as above
[36] = target: HIV-1 subtype C C3728v2c6 gp160 DC (HIV-1 subtype C isolate C3728v2c6); test: as above

## 2F5 human monoclonal antibody to the gp41 MPER
[1]
  OD 450 nm: 0.2 OD 450 nm
[2]
  OD 450 nm: 0.198 OD 450 nm
[3]
  OD 450 nm: 0.146 OD 450 nm
[4]
  OD 450 nm: 0.155 OD 450 nm
[5]
  OD 450 nm: 2.27 OD 450 nm
[6]
  OD 450 nm: 0.298 OD 450 nm
[7]
  OD 450 nm: 0.179 OD 450 nm
[8]
  OD 450 nm: 0.344 OD 450 nm
[9]
  OD 450 nm: 0.219 OD 450 nm
[10]
  OD 450 nm: 0.399 OD 450 nm
[11]
  OD 450 nm: 0.781 OD 450 nm
[12]
  OD 450 nm: 0.53 OD 450 nm
[13]
  OD 450 nm: 0.506 OD 450 nm
[14]
  OD 450 nm: 2.64 OD 450 nm
[15]
  OD 450 nm: 1.21 OD 450 nm
[16]
  OD 450 nm: 0.446 OD 450 nm
[17]
  OD 450 nm: 1.46 OD 450 nm
[18]
  OD 450 nm: 0.829 OD 450 nm

## 4E10 human monoclonal antibody to the gp41 MPER
[19]
  OD 450 nm: 2.72 OD 450 nm
[20]
  OD 450 nm: 2.78 OD 450 nm
[21]
  OD 450 nm: 2.65 OD 450 nm
[22]
  OD 450 nm: 2.7 OD 450 nm
[23]
  OD 450 nm: 2.55 OD 450 nm
[24]
  OD 450 nm: 2.62 OD 450 nm
[25]
  OD 450 nm: 2.59 OD 450 nm
[26]
  OD 450 nm: 2.74 OD 450 nm
[27]
  OD 450 nm: 2.65 OD 450 nm
[28]
  OD 450 nm: 0.926 OD 450 nm
[29]
  OD 450 nm: 0.589 OD 450 nm
[30]
  OD 450 nm: 0.146 OD 450 nm
[31]
  OD 450 nm: 0.162 OD 450 nm
[32]
  OD 450 nm: 2.42 OD 450 nm
[33]
  OD 450 nm: 2.61 OD 450 nm
[34]
  OD 450 nm: 1.1 OD 450 nm
[35]
  OD 450 nm: 2.53 OD 450 nm
[36]
  OD 450 nm: 0.681 OD 450 nm

From patent US20140220107A1
